Biological target: biotinylated Aβ oligomers (from bAβ1–42) (UniProt P05067 672-713)
Experiment: ELISA
Conditions: both partners purified

B1: wild-type human prion protein (amino acids 23–231), unlabeled (domain or fragment)
chain: not shown
binding result: binds

Reference: publication PMC4505445 (The Journal of Biological Chemistry, 2015)
